We go through 14 molecules from patent publication US20070129307A1 (UNIVERSITY OF BRITISH COLUMBIA, published 2007).

B1: TV2 (peptide)
peptide: KYPAVLLIL
notes: Modified version of TV1 with leucine to tyrosine at position 2; also called MTV2
B2: TUM (peptide)
peptide: KYQAVTTTL
notes: also called negative control peptide TUM
B3: TV3 (peptide)
peptide: RLLPLLALL
notes: Peptide derived from the mouse insulin protein

A value given as a limit tells only on which side of the number the result lay.

For the first assay, the target named is T1, human MHC class I molecule HLA-A*0201 (human).
T1 construct: MHC class I molecule on the surface of T2 cells; also called HLA-A2; HLA-A201
The assay is described as follows: HLA-A2 stabilization on T2 cells loaded with 50 ug/ml peptide, anti-HLA-A2 (BB7.2) flow cytometry, MFI relative to CMV/A2. (In general: Flow cytometry measures light scatter and fluorescence of single cells or particles in a stream.)
As for ALWMRLLPL [Insulin2], the “relative HLA-A2 surface expression (% of CMV/A2 peptide binding)” value is over 80%. Still for that read-out and setting: in the case of LLPPLLEHL [IA-2(180)] it was over 80%; in that of GMAELMAGL [Phogrin331], over 80%; in that of SLAAGVKLL [IA-2(482)], over 80%. Take SLSPLQAEL [IA-2(172)]: the “relative HLA-A2 surface expression (% of CMV/A2 peptide binding)” value is over 80%.

A further assay has as its target T2, murine MHC class I molecule, H-2Kd (mouse, UniProt P01887 21-119; P01902 22-368, limits assumed).
T2 construct: whole, on cells; MHC class I molecule on the surface of RMAS-Kd cells
T2 sequence (MHC heavy, looked up): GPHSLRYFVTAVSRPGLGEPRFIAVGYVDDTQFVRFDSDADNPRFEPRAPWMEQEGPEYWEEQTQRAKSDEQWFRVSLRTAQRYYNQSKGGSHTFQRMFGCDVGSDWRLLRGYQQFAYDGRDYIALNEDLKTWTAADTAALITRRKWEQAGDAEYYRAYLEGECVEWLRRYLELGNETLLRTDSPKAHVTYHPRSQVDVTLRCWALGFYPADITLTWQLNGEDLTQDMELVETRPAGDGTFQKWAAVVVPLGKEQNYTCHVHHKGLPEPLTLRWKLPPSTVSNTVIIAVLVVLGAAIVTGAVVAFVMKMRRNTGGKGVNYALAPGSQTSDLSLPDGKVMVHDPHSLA
T2 sequence (b2m, looked up): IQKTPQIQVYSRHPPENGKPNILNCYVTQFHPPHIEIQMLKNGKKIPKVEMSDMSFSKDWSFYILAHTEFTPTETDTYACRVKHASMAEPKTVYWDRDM
Nature of the assay: MHC class I stabilization assay on TAP-deficient RMAS-Kd cells, anti-H-2Kd-FITC, flow cytometry (background without peptide 6.07%).
Take KLPAVLLIL [murine IAPP precursor peptide mTV1]: the “% of RMAS-Kd cells staining positive for surface H-2Kd” value (shortened to “% of RMAS-Kd cells staining positive”) was 64.2%. On the same count and under the same terms, the result for B1 reads 58.5%. Turning to B2, the “% of RMAS-Kd cells staining positive” value was determined as 66.5%. Consider B3, for which the “% of RMAS-Kd cells staining positive” value was found to be 70.1%.

The target of another assay is T1, human MHC class I molecule HLA-A*0201. Nature of the assay: peptide/HLA-A2 complex stability on T2 cells after peptide removal and emetine, 37 C, anti-HLA-A2 flow cytometry, normalized to CMV/HLA-A2.
Take ALWMRLLPL [Insulin2]: the “% of peptide/HLA-A2 complex dissociated in 4 hours” value was about 20%. Same read-out and setting: in the case of RLLCALTSL [IGRP293] it was about 20%; in that of GMAELMAGL [Phogrin331], about 20%; in that of KLQVFLIVL (also called HTV1; HTV-1) [IAPP5], under 5%. With FLWSVFMLI [IGRP152], the “% of peptide/HLA-A2 complex dissociated in 4 hours” value was under 5%. Still for that read-out and setting: in the case of FLIVLSVAL [IAPP9] it was under 5%; in that of FLFAVGFYL [IGRP215], under 5%. Consider SLSPLQAEL [IA-2(172)], for which the “% of peptide/HLA-A2 complex dissociated in 4 hours” value was under 5%.
